The labels stand for the following.
B1: VRT-57 (Fc fusion)
chain: VTSVWTKGVTPPTDFIKGEDVFHAPYKAGQGWYDITKTFNGKDNLLCGAATAGNMLHWWFDQNKEYIEAYLKKHPEKQKIIFNNQELFDLKAAINTKGSQKNSELFNYFRDKAFPNLSARRLGVFPDLVLDMFINGYYLNVTKTQTTDVNRTYQEKDKRGGIFDAVFTRGVQSKLLTSRHDFKEKGLKEISDLIKQELTEGKALGLSHTYANVRINHVINLWGADFDSDGNLKAIYVTDSDSNASIGMKKYFVGVNSAGKVAISAKEIKEDNIGAQVLGLFTLSTGQDIWNQTNDKTHTCPPCPAPEAAGAPSVFLFPPKPKDTLMISRTPEVTCVVVDVSHEDPEVKFNWYVDGVEVHNAKTKPREEQQNSTYRVVSVLTVLHQDWLNGKEYKCKVSNKALKAPIEKTISKAKGQPREPQVYTLPPSRDELTKNQVSLTCLVKGFYPSDIAVEWESNGQPENNYKTTPPVLDSDGSFFLYSKLTVDKSRWQQGNVFSCSVMHEALHNHYTQKSLSLSPG
B2: VRT-59 (Fc fusion)
chain: VTSVWTKGVTPPADFTQGEDVFHAPYVANQGWYDITKTFNGKDNLLCGAATAGNMLHWWFDQNKEYIEAYLKKHPEKQKIIFNNQELFDLKAAINTKGSQKNSELFNYFRDKAFPNLSARRLGVFPDLVLDMFINGYYLNVTKTQTTDVNRTYQEKDKRGGIFDAVFTRGVQSKLLTSRHDLKNKGLKEISDLIKQELTEGKALGLSHTYANVRINHVINLWGADFDSDGNLKAIYVTDSDSNASIGMKKYFVGVNSAGKVAISAKEIKEDNIGAQVLGLFTLSTGQDIWNQTNDKTHTCPPCPAPEAAGAPSVFLFPPKPKDTLMISRTPEVTCVVVDVSHEDPEVKFNWYVDGVEVHNAKTKPREEQQNSTYRVVSVLTVLHQDWLNGKEYKCKVSNKALKAPIEKTISKAKGQPREPQVYTLPPSRDELTKNQVSLTCLVKGFYPSDIAVEWESNGQPENNYKTTPPVLDSDGSFFLYSKLTVDKSRWQQGNVFSCSVMHEALHNHYTQKSLSLSPG
B3: VRT-58 (Fc fusion)
chain: VTSVWTKGVTPPTDFIKGEDVFHAPYKAGQGWYDITKTFNGKDNLLCGAATAGNMLHWWFDQNKEYIEAYLKKHPEKQKIIFNNQELFDLKAAINTKGSQKNSELFNYFRDKAFPNLSARRLGVFPDLVLDMFINGYYLNVTKTQTTDVNRTYQEKDKRGGIFDAVFTRGVQSKLLTSRHDLKNKGLKEISDLIKQELTEGKALGLSHTYANVRINHVINLWGADFDSDGNLKAIYVTDSDSNASIGMKKYFVGVNSAGKVAISAKEIKEDNIGAQVLGLFTLSTGQDIWNQTNDKTHTCPPCPAPEAAGAPSVFLFPPKPKDTLMISRTPEVTCVVVDVSHEDPEVKFNWYVDGVEVHNAKTKPREEQQNSTYRVVSVLTVLHQDWLNGKEYKCKVSNKALKAPIEKTISKAKGQPREPQVYTLPPSRDELTKNQVSLTCLVKGFYPSDIAVEWESNGQPENNYKTTPPVLDSDGSFFLYSKLTVDKSRWQQGNVFSCSVMHEALHNHYTQKSLSLSPG

Experimental findings from patent US20250027068A1 are described below.

The assay concerns the target pooled human IgG (human). Put plainly: cell-based or functional assay.
Consider B1, for which the Enzyme Activity Endpoint Assay, Fab′2 amounted to 0 ng/µL; the Enzyme Activity Endpoint Assay, Fc was determined as 97 ng/µL; the Enzyme Activity Endpoint Assay, IgG is 903 ng/µL; the Enzyme Activity Endpoint Assay, scIgG worked out at 27 ng/µL.
For the molecule B2, the Enzyme Activity Endpoint Assay, Fab′2 came to 0 ng/µL; the Enzyme Activity Endpoint Assay, Fc amounted to 157 ng/µL; the Enzyme Activity Endpoint Assay, IgG came out at 726 ng/µL; the Enzyme Activity Endpoint Assay, scIgG is 107 ng/µL.
B3 returned an Enzyme Activity Endpoint Assay, Fab′2 of 0 ng/µL; an Enzyme Activity Endpoint Assay, Fc of 191 ng/µL; an Enzyme Activity Endpoint Assay, IgG of 527 ng/µL; an Enzyme Activity Endpoint Assay, scIgG of 236 ng/µL.
